From article doi:10.1101/2021.10.07.463402

Target: SARS-CoV-2 spike glycoprotein (S), wild type (SARS-CoV-2 strain Wuhan-Hu-1)
Assay: native gel or EMSA

“SARS-CoV-2 spike glycoprotein (S), wild type (natural protein)” was tested, and the stoichiometry N was 3.
